Consider 4 substances from patent US20060039904A1.

Values joined by “and” are separate entries in the source; they are usually repeats but may differ in a detail not shown here. Equal entries are not always repeated.

Assay [1] deals with FcγRIIIA-streptavidin fusion protein (tetramer) (human; Streptomyces avidinii) (UniProt P08637). As to the kind of experiment: ELISA: antibody captured on protein A/G, FcγRIIIA tetramer (streptavidin fusion), biotin-HRP, OD450. On the technique in general: An ELISA detects its analyte on a solid surface through an enzyme-linked reagent.
For assay [2], the target named is FcγRIIIA (soluble receptor used as analyte in the BIAcore runs) (human) (UniProt P08637). As to the kind of experiment: BIAcore run 1, IgG immobilized, soluble FcγRIIIA, steady-state isotherm.
FcγRIIIA (soluble receptor used as analyte in the BIAcore runs) (human), sequence (P08637 17-208): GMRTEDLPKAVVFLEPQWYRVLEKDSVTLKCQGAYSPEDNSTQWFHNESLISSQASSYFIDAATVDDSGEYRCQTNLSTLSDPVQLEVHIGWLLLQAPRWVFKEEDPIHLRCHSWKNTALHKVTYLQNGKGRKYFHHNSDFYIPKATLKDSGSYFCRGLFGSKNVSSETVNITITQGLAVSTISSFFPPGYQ
Assay [3] shares this target. As to the kind of experiment: BIAcore run 2, IgG immobilized, soluble FcγRIIIA, steady-state isotherm. In general terms: SPR reads the build-up and loss of mass on a sensor chip optically.
The target is the same in assay [4]. Nature of the assay: BIAcore run 2, IgG immobilized, soluble FcγRIIIA, Scatchard plot.
Assay [5] has as its target FcγRIIB-streptavidin fusion protein (tetramer) (human; Streptomyces avidinii) (UniProt P31994). As to the kind of experiment: ELISA: antibody captured on protein A/G, FcγRIIB-streptavidin, biotin-HRP, OD450.
Assay [6] concerns the target FcγRIIIA (soluble receptor used as analyte in the BIAcore runs) (human) (UniProt P08637). Nature of the assay: BIAcore run 1, IgG immobilized, soluble FcγRIIIA, Scatchard plot.

In general, EC50 (read off the curve) refers to the concentration needed to bring the measured effect to its halfway point. Read a high EC50 (read off the curve) as lower potency in that assay. In turn, “3F2-1M (3F2 Fc variant I332E, IgG1) (from UniProt P01857 1-330) (antibody)” displayed a concentration giving a half-maximal response (EC50 (read off the curve)) in assay [1] of 0.05 µg/mL.
“3F2-3M (3F2 Fc variant S239D/A330L/I332E, IgG1) (from UniProt P01857 1-330) (antibody)” displayed a concentration for a half-maximal effect (EC50 (read off the curve)) in assay [1] of 0.05 µg/mL.
What is called Kd is the constant that tells how readily two partners part at equilibrium. Read a high Kd as weaker binding. On to Vitaxin® (wild type IgG1 antibody), for which the dissociation constant (Kd) was determined as 3.47 µM in assay [2], 8.9 µM in assay [3], 7.6 µM in assay [4] and 3.26 µM in assay [6]. For the same substance, the EC50 (read off the curve) in assay [5] was 0.4 µg/mL and 0.3 µg/mL.
The substance “Vitaxin®-1M (Vitaxin® Fc variant I332E, IgG1) (from UniProt P01857 1-330) (antibody)” came in with an EC50 (read off the curve) in assay [5] of 0.3 µg/mL.
